Patent publication US20040126882, “Regulatable, catalytically active nucleic acids” (published 2004)

B1: ND1 group I intron (ssRNA)
RNA: GACUAAUAUGAUUUGGUCUCAUUAAAGAUCACAAAUUGCUGGAAACUCCUUUGAGGCUAGGACAAUCAGCAAGGAAGUUAACAUAUAAUGUUAAAACCUUCAGAGACUAGACGUGAUCAUUUAAUAGACGCCUUGCGGCUCUUAUUAGAUAAGGUAUAGUCCAAAUUUGUAUGUAAAUACAAAAUGAUAAAAAAAAAUGAAAUCAUAUGGG
B2: B17 (ssRNA)
RNA: GGGAAUGGAUCCACAUCUACGAAUUCGUAGCGUAGAGUAUGAGAGAGCCAAGGUCAGGUUCACUCCAGACUUGACGAAGCUU
B3: M12 (ssRNA)
RNA: GGGAAUGGAUCCACAUCUACGAAUUCGAGUCGAGAACUGGUGCGAAUGCGAGUAAGUUCACUCCAGACUUGACGAAGCUU
B4: c1 (ssRNA)
RNA: GGGAAUGGAUCCACAUCUACGAAUUCAUCAGGGCUAAAGAGUGCAGAGUUACUUAGUUCACUCCAGACUUGACGAAGCUU

How the values were obtained:
[1] = target: T1, hen egg white lysozyme (UniProt P00698 P00698:19-147); test: competition; no appreciable inhibition of lys11-2 activation
Experimental: (§1) Ligation assays. In one example, 10 pmol of [³²P]-body-labeled ribozyme and 20 pmol effector oligonucleotide were denatured for 3 min at 70° C. in 5 μl water. The RNA mixture was cooled to room temperature followed by addition of ligation buffer and target protein (20 pmol unless otherwise stated, or water in place of ligand, in the case of […]). After a 5 min equilibration at room temperature, reactions were initiated by the addition of 20 pmol substrate oligonucleotide (S28A) in a final volume of 15 μl. Reactions were incubated at 25° C., and 4 μl aliquots were removed at three appropriate time points and terminated by the addition of 18 μl of SDS stop mix (100 mM EDTA, 80% formamide, 0.8% SDS, 0.05% bromophenol blue, 0.05% xylene cyanol). Samples were denatured for 3 min at 70° C., ligated and unligated species were separated from one another on 8% polyacrylamide gels containing 0.1% SDS, and the amounts of products formed were determined using a Phosphorimager (Molecular Dynamics, Sunnyvale, Calif.). Assays performed over a broad range of protein concentrations (e.g, FIG. 21) differed from typical reaction conditions in that only 1 pmol ribozyme was present in a 10 μl final volume.
(§2) Competition assays. Ligation assays were performed as described above, using 10 pmol of [³²P]-body-labeled ribozyme (cyt7-2 or lys11-2; […]) and 20 pmol effector oligonucleotide (2 μM). […]

[2] = target: T2, Cyt18 (mitochondrial tyrosyl-tRNA synthetase, CYT-18) (Neurospora crassa, UniProt P12063 P12063:33-669); test: competition; greatest reduction of Cyt18 activation of cyt7-2; 3 uM competitor; details: chain copies: 2
T2 sequence: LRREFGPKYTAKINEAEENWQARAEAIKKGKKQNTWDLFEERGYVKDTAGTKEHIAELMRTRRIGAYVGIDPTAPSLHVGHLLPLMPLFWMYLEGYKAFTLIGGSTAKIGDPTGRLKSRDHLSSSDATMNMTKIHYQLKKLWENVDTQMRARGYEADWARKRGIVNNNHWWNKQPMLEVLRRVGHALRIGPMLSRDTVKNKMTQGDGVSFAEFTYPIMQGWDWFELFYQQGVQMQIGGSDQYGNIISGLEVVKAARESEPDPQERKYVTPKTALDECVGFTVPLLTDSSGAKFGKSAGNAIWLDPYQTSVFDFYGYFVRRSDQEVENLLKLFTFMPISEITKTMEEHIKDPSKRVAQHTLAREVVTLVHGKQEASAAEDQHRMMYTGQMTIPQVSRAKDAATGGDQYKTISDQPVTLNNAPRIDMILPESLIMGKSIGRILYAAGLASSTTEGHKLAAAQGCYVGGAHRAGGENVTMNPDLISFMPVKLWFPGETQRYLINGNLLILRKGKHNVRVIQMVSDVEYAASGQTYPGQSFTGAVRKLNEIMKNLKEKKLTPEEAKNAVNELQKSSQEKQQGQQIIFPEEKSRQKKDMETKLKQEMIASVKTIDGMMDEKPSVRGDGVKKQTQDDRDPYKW
Experimental: as §1, §2

[3] = target: T1, hen egg white lysozyme; test: competition
Experimental: as §1
(§3) Competition assays. Ligation assays were performed as described above, using 10 pmol of [³²P]-body-labeled ribozyme (cyt7-2 or lys11-2; […]) and 20 pmol effector oligonucleotide (2 μM). The denatured and annealed RNA mixture was combined with ligation buffer, 20 pmol protein (Cyt18, lysozyme, or water in the case of (−) protein samples; 2 μM), and 30 pmol of denatured and annealed competitor RNA (3 μM).

[4] = target: T2, Cyt18 (mitochondrial tyrosyl-tRNA …); test: competition; details: chain copies: 2
Experimental: as §1, §3

Row | Binder | binding result [1] | binding result [2] | binding result [3] | binding result [4]
1 | B1 | no binding | binds | – | –
2 | B2 | – | – | no binding | –
3 | B3 | – | – | no binding | binds
4 | B4 | – | – | binds | –
